Drawing on paper PMC3210382, this text covers binding signal for one molecule.

The series addresses BoNT/A toxoid (formaldehyde-inactivated botulinum neurotoxin type A, 150 kDa) (UniProt P0DPI1 2-1296). The series can be described thus: […].

BoNT/A toxoid (formaldehyde-inactivated botulinum neurotoxin type A, 150 kDa), sequence (P0DPI1 2-1296): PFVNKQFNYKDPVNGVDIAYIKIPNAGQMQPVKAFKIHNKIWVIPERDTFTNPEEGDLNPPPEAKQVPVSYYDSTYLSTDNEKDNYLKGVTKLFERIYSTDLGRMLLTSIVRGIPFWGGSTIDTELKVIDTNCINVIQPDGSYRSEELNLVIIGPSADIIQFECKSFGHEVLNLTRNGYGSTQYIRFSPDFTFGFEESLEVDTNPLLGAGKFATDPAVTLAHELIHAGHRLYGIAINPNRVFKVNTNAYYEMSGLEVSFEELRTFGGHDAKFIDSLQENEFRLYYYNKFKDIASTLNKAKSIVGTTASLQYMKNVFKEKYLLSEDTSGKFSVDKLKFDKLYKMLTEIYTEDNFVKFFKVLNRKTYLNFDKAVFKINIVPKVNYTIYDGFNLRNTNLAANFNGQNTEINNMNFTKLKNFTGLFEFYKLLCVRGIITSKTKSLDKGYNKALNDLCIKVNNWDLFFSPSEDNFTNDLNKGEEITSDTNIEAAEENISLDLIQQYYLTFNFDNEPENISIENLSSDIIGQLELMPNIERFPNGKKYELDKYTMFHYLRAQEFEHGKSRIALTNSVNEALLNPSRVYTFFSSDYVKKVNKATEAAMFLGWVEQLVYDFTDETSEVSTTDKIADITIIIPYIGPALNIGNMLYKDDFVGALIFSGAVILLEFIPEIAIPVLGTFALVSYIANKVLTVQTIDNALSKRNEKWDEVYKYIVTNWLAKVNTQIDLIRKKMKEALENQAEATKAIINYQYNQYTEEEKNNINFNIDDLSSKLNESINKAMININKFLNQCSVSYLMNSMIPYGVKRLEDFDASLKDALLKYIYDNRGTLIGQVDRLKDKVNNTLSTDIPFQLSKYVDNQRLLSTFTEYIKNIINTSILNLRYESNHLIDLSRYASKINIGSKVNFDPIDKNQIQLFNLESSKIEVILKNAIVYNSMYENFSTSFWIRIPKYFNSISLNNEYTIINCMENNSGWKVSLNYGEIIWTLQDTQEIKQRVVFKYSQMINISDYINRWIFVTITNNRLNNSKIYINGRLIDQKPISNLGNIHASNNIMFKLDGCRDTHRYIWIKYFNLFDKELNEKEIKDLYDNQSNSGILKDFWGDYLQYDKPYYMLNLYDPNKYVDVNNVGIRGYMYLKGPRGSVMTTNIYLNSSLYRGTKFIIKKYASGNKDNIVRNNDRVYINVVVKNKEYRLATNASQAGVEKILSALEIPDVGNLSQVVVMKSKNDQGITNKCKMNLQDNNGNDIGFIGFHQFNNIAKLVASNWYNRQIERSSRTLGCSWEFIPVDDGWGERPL

B1: BoNT/A aptamer (76 nt) (ssDNA)
DNA: ATACCAGCTTATTCAATTGACATGACTGGGATTTTTGGCGAAATCGAAGGAAGCGGAGAGATAGTAAGTGCAATCT
B1: the binding signal was ~3.8 signal-to-background ratio.
